Measurements taken from patent US20220324932A1 (CSPC MEGALITH BIOPHARMACEUTICAL, published 2022).

T1: IL-2Rα (CD25) on the cell surface of mouse T cells (CTLL-2 cells; Treg cells of C57BL/6 mice) (mouse, UniProt P01590 22-268)
T1 sequence (looked up): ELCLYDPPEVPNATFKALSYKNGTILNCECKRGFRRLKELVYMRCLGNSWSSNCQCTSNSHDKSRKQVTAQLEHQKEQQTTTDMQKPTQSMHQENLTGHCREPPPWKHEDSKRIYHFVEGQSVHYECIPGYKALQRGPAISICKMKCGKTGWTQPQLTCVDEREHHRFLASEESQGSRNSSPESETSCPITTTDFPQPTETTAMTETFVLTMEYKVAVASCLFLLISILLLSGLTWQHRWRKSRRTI

B1: IL-2A2 (modified IL-2 protein with exogenous patch sequence IFKQTY replacing a portion of IL-2 Aldesleukin) (ligand)
chain: PTSSSTKKTQLQLEHLLLDLQMILNGINNYKNPKLTRMLIFKQTYPKKATELKHLQCLEEELKPLEEVLNLAQSKNFHLRPRDLISNINVIVLELKGSETTFMCEYADETATIVEFLNRWITFSQSIISTLT
B2: PEG-20K-IL-2A2 (IL-2A2 conjugated with 20 kDa methoxy-PEG-amine) (ligand)
chain: PTSSSTKKTQLQLEHLLLDLQMILNGINNYKNPKLTRMLIFKQTYPKKATELKHLQCLEEELKPLEEVLNLAQSKNFHLRPRDLISNINVIVLELKGSETTFMCEYADETATIVEFLNRWITFSQSIISTLT
modifications: 20 kDa methoxy-PEG-amine conjugated by mTGase to the engineered Q residue of the IFKQTY patch

Molecular target: T1, IL-2Rα (CD25) on the cell surface of …
Experiment: cell-based or functional assay

| Binder | fold decrease in bioactivity in inducing CTLL-2 cell growth, compared to parent IL-2 Aldesleukin [fold] | percentage of Treg cells in blood of C57BL/6 mice after treatment [%] |
| --- | --- | --- |
| B1 | ~49 | 0.32 |
| B2 |  | 0.25 |
